Biological target: T1, GST-NPHP4-C2^650-839 (human, UniProt O75161 650-839)
T1 construct: central C2 domain of NPHP4, residues 650-839; also called GST-N4-C2^2650-839 (as printed in the legend); GST fused to the central C2 domain of NPHP4; source: bacterially purified
T1 sequence (looked up): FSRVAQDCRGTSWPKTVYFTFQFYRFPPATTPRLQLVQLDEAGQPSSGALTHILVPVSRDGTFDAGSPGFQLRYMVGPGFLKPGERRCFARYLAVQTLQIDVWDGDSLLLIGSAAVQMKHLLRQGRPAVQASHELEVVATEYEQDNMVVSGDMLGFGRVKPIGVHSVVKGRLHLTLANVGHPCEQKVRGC
Test: pull-down; GFP-KIF13B-C2^861-1,000 held on anti-GFP immunocomplexes, washed two times in high salt buffer (600 mM NaCl, 10 mM Tris-HCl, 0.1% NP-40); bacterially purified GST-NPHP4-C2^650-839 (500 ng/µl) added in modified EBC buffer (140 mM NaCl, 10 mM Tris-HCl, 5 mM EDTA, 0.5% NP-40); standard GFP IP
Details: both partners purified

binding result: binds
B1: GFP-KIF13B-C2^861-1,000 (domain or fragment, human, UniProt Q9NQT8 861-1000, looked up)
chain: KETQENKLVCMVKILQATGLPQHLSHFVFCKYSFWDQQEPVIVAPEVDTSSSSVSKEPHCMVVFDHCNEFSVNITEDFIEHLSEGALAIEVYGHKINDPRKNPALWDLGIIQAKTRSLRDRWSEVTRKLEFWVQILEQNE
notes: made by PCR from the GFP-KIF13B plasmid and cloned into pEGFP-C1; also called KIF13B RPGRIP1N-C2 type domain; source: HEK293T, transfected, in lysate; also immunoisolated on anti-GFP beads with high salt washes
